Laboratory results published in PMC5809500.

Legend:
[1] = target: WT anti-NIP hIgG1 (chimeric hIgG1 with mouse lambda light chain, hIgG1 constant HC and a VH specific for NIP) (human | mouse); test: MST; 20 nM NT-647-labelled hIgG1 variant constant, hFcRn titrated (60,000–0.3 nM); 100 mM phosphate buffer, 150 mM NaCl, 0.01% Tween 20, pH 5.5; 25 °C; Monolith NT.115
[2] = target: anti-NIP hIgG1-KF (H433K/N434F) (human | mouse); test: as above
[3] = target: anti-NIP hIgG1-YTE/KF (M252Y/S254T/T256E/H433K/N434F) (human | mouse); test: as above
[4] = target: anti-NIP hIgG1-YTE (M252Y/S254T/T256E) (human | mouse); test: as above
[5] = target: WT anti-NIP hIgG1 (chimeric hIgG1 with mouse lambda light chain, hIgG1 constant HC and a VH specific for NIP) (human | mouse); test: MST; 20 nM NT-647-labelled hIgG1 variant constant, hFcRn titrated (60,000–0.3 nM); PBS, 0.01% Tween 20, pH 7.4; 25 °C; Monolith NT.115
[6] = target: anti-NIP hIgG1-KF (H433K/N434F) (human | mouse); test: as above
[7] = target: anti-NIP hIgG1-LS (M428L/N434S) (human | mouse); test: as above
[8] = target: anti-NIP hIgG1-YTE (M252Y/S254T/T256E) (human | mouse); test: as above
[9] = target: hFcRn coupled to the affinity column (analytical hFcRn affinity chromatography) (UniProt P55899); test: analytical hFcRn affinity chromatography; hFcRn coupled to the column; 50 µl hIgG1 variant (1 mg/ml) injected, eluted by a linear pH gradient from pH 6.0 to 8.8 within 110 min (20 mM MES, 140 mM NaCl / 20 mM Tris/HCl, 140 NaCl)
[10] = target: Truncated monomeric His-tagged hFcRn (three extracellular domains of the hFcRn HC with human β2-microglobulin) (human) (UniProt P55899)

Truncated monomeric His-tagged hFcRn (three extracellular domains of the hFcRn HC with human β2-microglobulin) (from UniProt P55899 24-297; P61769 21-119) (receptor)
Kd [1]: 964 nM
Kd [2]: 53.4 nM
Kd [3]: 9.3 nM
Kd [4]: 166 nM
Kd [5]: > 60000 nM
Kd [6]: 3300 nM
Kd [7]: 7000 nM
Kd [8]: > 20000 nM

WT anti-NIP hIgG1 (chimeric hIgG1 with mouse lambda light chain, hIgG1 constant HC and a VH specific for NIP) (antibody)
pH of the elution peak from the hFcRn column [9]: 7 pH

anti-NIP hIgG1-YTE/KF (M252Y/S254T/T256E/H433K/N434F) (antibody)
reduction of recycling of WT anti-hexon hIgG1 (500 nM) by HMEC1-hFcRn cells (HERA, pH 7.4) with 2 µM YTE/KF; the pair blocked is WT hIgG1 and hFcRn [10]: 50%
